Test results reported in the supplement of paper PMC11246515.
± gives the standard deviation of the averaged measurements.

Assay: total protein half-life in vivo (active degradation + dilution); higher = more stable protein
[1] = E. coli NCM3722 delta-clpP delta-lon delta-hslV, growth: N-lim chemostat, doubling time 6 h
[2] = E. coli NCM3722 delta-clpP, growth: N-lim chemostat, doubling time 6 h
[3] = E. coli NCM3722 delta-hslV, growth: N-lim chemostat, doubling time 6 h
[4] = E. coli NCM3722 delta-lon, growth: N-lim chemostat, doubling time 6 h
[5] = E. coli NCM3722 delta-smpB, growth: N-lim chemostat, doubling time 6 h
[6] = wild type E. coli NCM3722, growth: C-lim chemostat, doubling time 3 h
[7] = wild type E. coli NCM3722, growth: C-lim chemostat, doubling time 6 h
[8] = wild type E. coli NCM3722, growth: C-lim chemostat, doubling time 12 h
[9] = wild type E. coli NCM3722, growth: N-lim chemostat, doubling time 6 h
[10] = wild type E. coli NCM3722, growth: N-lim chemostat, doubling time 12 h
[11] = wild type E. coli NCM3722, growth: P-lim chemostat, doubling time 6 h
[12] = wild type E. coli NCM3722, growth: P-lim chemostat, doubling time 12 h

Sequence | total protein half-life in vivo [1] | total protein half-life in vivo [2] | total protein half-life in vivo [3] | total protein half-life in vivo [4] | total protein half-life in vivo [5] | total protein half-life in vivo [6] | total protein half-life in vivo [7] | total protein half-life in vivo [8] | total protein half-life in vivo [9] | total protein half-life in vivo [10] | total protein half-life in vivo [11] | total protein half-life in vivo [12]
MRVLVTGGSGYIGSHTCVQLLQNGHDVIILDNLCNSKRSVLPVIERLGGKHPTFVEGDIRNEALMTEILHDHAIDTVIHFAGLKAVGESVQKPLEYYDNNVNGTLRLISAMRAANVKNFIFSSSATVYGDQPKIPYVESFPTGTPQSPYGKSKLMVEQILTDLQKAQPDWSIALLRYFNPVGAHPSGDMGEDPQGIPNNLMPYIAQVAVGRRDSLAIFGNDYPTEDGTGVRDYIHVMDLADGHVVAMEKLANKPGVHIYNLGAGVGNSVLDVVNAFSKACGKPVNYHFAPRREGDLPAYWADASKADRELNWRVTRTLDEMAQDTWHWQSRHPQGYPD | 6.39 ± 1.9 h | 4.762 ± 0.027 h | 4.54 ± 0.37 h | 5 ± 0.24 h | 5.61 ± 1.2 h | 3.11 ± 0.27 h | 5.62 ± 0.26 h | 11.6 ± 0.67 h | 4.53 ± 0.95 h | 13.7 ± 1.8 h | 5.91 ± 0.51 h | 11.7 ± 0.53 h
MRVNLLITMIIFALIWPVTALRAAVSKTTWADAPAREFVFVENNSDDNFFVTPGGALDPRLTGANRWTGLKYTGSGTIYQQSLGYIDNGYNTGLYTNWKFDMWLENSPVSSPLTGLRCINWYAGCNMTTSLILPQTTDASGFYGATVTSGGAKWMHGMLSDAFYQYMQQMPVGSSFTMTINACQTSVNYDASSGARCKDQASGNWYVRNVTHTKAANLRLINTHSLAEVFINSDGVPTLGEGNADCRTQTIGSRSGLSCKMVNYTLQTNGLSNTSIHIFPAIANSSLASAVGAYDMQFSLNGSSWKPVSNTAYYYTFNEMKSADSIYVFFSSNFFKQMVNLGISDINTKDLFNFRFQNTTSPESGWYEFSTSNTLIIKPRDFSISIISDEYTQTPSREGYVGSGESALDFGYIVTTSGKTAADEVLIKVTGPAQVIGGRSYCVFSSDDGKAKVPFPATLSFITRNGATKTYDAGCDDSWRDMTDALWLTTPWTDISGEVGQMDKTTVKFSIPMDNAISLRTVDDNGWFGEVSASGEIHVQATWRNIN | 5.48 h | 4.16 ± 0.31 h | 4.45 ± 0.53 h |  | 5.38 ± 0.3 h | 2.41 h | 5.13 ± 0.19 h | 10.2 ± 0.39 h | 5.187 ± 0.038 h | 10.3 h | 6.55 h | 10.9 ± 2.3 h
MRVSRSLTIKQMAMVAAVVLVFVFIFCTVLLFHLVQQNRYNTATQLESIARSVREPLSSAILKGDIPEAEAILASIKPAGVVSRADVVLPNQFQALRKSFIPERPVPVMVTRLFELPVQISLGVYSLERPANPQPIAYLVLQADSFRMYKFVMSTLSTLVTIYLLLSLILTVAISWCINRLILHPLRNIARELNAIPAKELVGHQLALPRLHQDDEIGMLVRSYNLNQQLLQRHYEEQNENAMRFPVSDLPNKALLMEMLEQVVARKQTTALMIITCETLRDTAGVLKEAQREILLLTLVEKLKSVLSPRMILAQISGYDFAVIANGVQEPWHAITLGQQVLTIMSERLPIERIQLRPHCSIGVAMFYGDLTAEQLYSRAISAAFTARHKGKNQIQFFDPQQMEAAQKRLTEESDILNALENHQFAIWLQPQVEMTSGKLVSAEVLLRIQQPDGSWDLPDGLIDRIECCGLMVTVGHWVLEESCRLLAAWQERGIMLPLSVNLSALQLMHPNMVADMLELLTRYRIQPGTLILEVTESRRIDDPHAAVAILRPLRNAGVRVALDDFGMGYAGLRQLQHMKSLPIDVLKIDKMFVEGLPGDSSMIAAIIMLAQSLNLQMIAEGVETEAQRDWLAKAGVGIAQGFLFARPLPIEIFEESYLEEK | 6.54 ± 0.19 h | 6.31 ± 0.11 h | 6.2 ± 0.23 h | 5.77 ± 0.32 h | 6.1 ± 0.082 h | 2.998 ± 0.0049 h | 5.7 ± 1.1 h | 13 ± 0.22 h | 6.054 ± 0.008 h | 12.3 ± 0.63 h | 6.161 ± 0.035 h | 12.5 ± 0.55 h
MRVVILGSGVVGVASAWYLNQAGHEVTVIDREPGAALETSAANAGQISPGYAAPWAAPGVPLKAIKWMFQRHAPLAVRLDGTQFQLKWMWQMLRNCDTSHYMENKGRMVRLAEYSRDCLKALRAETNIQYEGRQGGTLQLFRTEQQYENATRDIAVLEDAGVPYQLLESSRLAEVEPALAEVAHKLTGGLQLPNDETGDCQLFTQNLARMAEQAGVKFRFNTPVDQLLCDGEQIYGVKCGDEVIKADAYVMAFGSYSTAMLKGIVDIPVYPLKGYSLTIPIAQEDGAPVSTILDETYKIAITRFDNRIRVGGMAEIVGFNTELLQPRRETLEMVVRDLYPRGGHVEQATFWTGLRPMTPDGTPVVGRTRFKNLWLNTGHGTLGWTMACGSGQLLSDLLSGRTPAIPYEDLSVARYSRGFTPSRPGHLHGAHS [P0A6J5] | 2.86 ± 0.088 h | 1.88 ± 0.14 h | 2.16 ± 0.24 h | 2.06 h | 1.95 ± 0.12 h | 1.01 ± 0.16 h | 1.65 ± 0.11 h | 2.68 ± 0.58 h | 2.04 ± 0.17 h | 3.35 ± 0.27 h | 2.27 ± 0.23 h | 4.77 ± 0.97 h
MRWILFILFCLLGAPAHAVSIPGVTTTTTTDSTTEPAPEPDIEQKKAAYGALADVLDNDTSRKELIDQLRTVAATPPAEPVPKIVPPTLVEEQTVLQKVTEVSRHYGEALSARFGQLYRNITGSPHKPFNPQTFSNALTHFSMLAVLVFGFYWLIRLCALPLYRKMGQWARQKNRERSNWLQLPAMIIGAFIIDLLLLALTLFVGQVLSDNLNAGSRTIAFQQSLFLNAFALIEFFKAVLRLIFCPNVAELRPFTIQDESARYWSRRLSWLSSLIGYGLIVAVPIISNQVNVQIGALANVIIMLCMTVWALYLIFRNKKEITQHLLNFAEHSLAFFSLFIRAFALVWHWLASAYFIVLFFFSLFDPGNSLKFMMGATVRSLAIIGIAAFVSGMFSRWLAKTITLSPHTQRNYPELQKRLNGWLSAALKTARILTVCVAVMLLLSAWGLFDFWNWLQNGAGQKTVDILIRIALILFFSAVGWTVLASLIENRLASDIHGRPLPSARTRTLLTLFRNALAVIISTITIMIVLSEIGVNIAPLLAGAGALGLAISFGSQTLVKDIITGVFIQFENGMNTGDLVTIGPLTGTVERMSIRSVGVRQDTGAYHIIPWSSITTFANFVRGIGSVVANYDVDRHEDADKANQALKDAVAELMENEEIRGLIIGEPNFAGIVGLSNTAFTLRVSFTTLPLKQWTVRFALDSQVKKHFDLAGVRAPVQTYQVLPAPGATPAEPLPPGEPTL | 4.93 ± 1 h | 6.1 ± 0.28 h |  | 5.15 ± 0.43 h |  |  | 2.55 ± 2 h | 6.41 ± 4.3 h | 4.92 h | 9.64 ± 0.63 h | 6.83 ± 0.65 h | 13 ± 1.4 h
